# Laboratory results as given in patent publication US20210403506A1 (XDCEXPLORER SHANGHAI, published 2021).
# Square brackets hold non-standard residues; d marks the D form. Primed or numbered codes have the meaning given here. Ends that are not written are not given here. * marks the point of attachment. azaTic = 3,4-dihydropyridazine-2(H)-formic acid; Pro(5R-Ph) = O=C(O)[C@@H]1CC[C@H](c2ccccc2)N1; Pro(4Ph)″ = 4-phenylproline (Pro(4-phenyl)); Bip = N[C@@H](Cc1ccc(-c2ccccc2)cc1)C(=O)O; PEG8 = NCCOCCOCCOCCOCCOCCOCCOCCOCCC(=O)O; Gly(Nα-CH2CH2CONH2) = NC(=O)CCNCC(=O)O; 1Nal = N[C@@H](Cc1cccc2ccccc12)C(=O)O; 2Nal = N[C@@H](Cc1ccc2ccccc2c1)C(=O)O; dNMeY = CN[C@H](Cc1ccc(O)cc1)C(=O)O; Hydrocinnamoyl = O=C(CCc1ccccc1)*; Palmitoyl = CCCCCCCCCCCCCCCC(=O)*; NMeQ = CN[C@@H](CCC(N)=O)C(=O)O; Tic = O=C(O)[C@@H]1Cc2ccccc2CN1; NMeL = CN[C@@H](CC(C)C)C(=O)O; NMeV = CN[C@H](C(=O)O)C(C)C; NMeS = CN[C@@H](CO)C(=O)O; dNMeS = CN[C@H](CO)C(=O)O; Thz = O=C(O)[C@@H]1CSCN1; dNMeA = CN[C@H](C)C(=O)O; dTi1c = not defined here; Nleu = CC(C)CNCC(=O)O; βAla = NCCC(=O)O
# B1: YW-125 (peptide)
# peptide: [dNMeY]F[NMeL][Thz][dS]Q[2Nal][dA][Tic][NMeS]-OH
# modifications: N-terminus assumed
# SMILES: CN[C@H](Cc1ccc(O)cc1)C(=O)N[C@@H](Cc1ccccc1)C(=O)N(C)[C@@H](CC(C)C)C(=O)N1CSC[C@H]1C(=O)N[C@H](CO)C(=O)N[C@@H](CCC(N)=O)C(=O)N[C@@H](Cc1ccc2ccccc2c1)C(=O)N[C@H](C)C(=O)N1Cc2ccccc2C[C@H]1C(=O)N(C)[C@@H](CO)C(=O)O
# B2: YW-146 (peptide)
# peptide: [dNMeY]F[NMeL]P[dS]Q[2Nal][dA][Tic][NMeS]-OH
# modifications: N-terminus assumed
# SMILES: CN[C@H](Cc1ccc(O)cc1)C(=O)N[C@@H](Cc1ccccc1)C(=O)N(C)[C@@H](CC(C)C)C(=O)N1CCC[C@H]1C(=O)N[C@H](CO)C(=O)N[C@@H](CCC(N)=O)C(=O)N[C@@H](Cc1ccc2ccccc2c1)C(=O)N[C@H](C)C(=O)N1Cc2ccccc2C[C@H]1C(=O)N(C)[C@@H](CO)C(=O)O
# B3: YW-148 (peptide)
# peptide: [dNMeY]F[NMeL][Thz][dS]Q[2Nal][dA][Tic]S-OH
# modifications: N-terminus assumed
# SMILES: CN[C@H](Cc1ccc(O)cc1)C(=O)N[C@@H](Cc1ccccc1)C(=O)N(C)[C@@H](CC(C)C)C(=O)N1CSC[C@H]1C(=O)N[C@H](CO)C(=O)N[C@@H](CCC(N)=O)C(=O)N[C@@H](Cc1ccc2ccccc2c1)C(=O)N[C@H](C)C(=O)N1Cc2ccccc2C[C@H]1C(=O)N[C@@H](CO)C(=O)O
# B4: YW-91 (peptide)
# peptide: [dY]FLP[dS]QF[dA][Pro(5R-Ph)]S-OH
# modifications: N-terminus assumed
# SMILES: CC(C)C[C@H](NC(=O)[C@H](Cc1ccccc1)NC(=O)[C@H](N)Cc1ccc(O)cc1)C(=O)N1CCC[C@H]1C(=O)N[C@H](CO)C(=O)N[C@@H](CCC(N)=O)C(=O)N[C@@H](Cc1ccccc1)C(=O)N[C@H](C)C(=O)N1[C@@H](c2ccccc2)CC[C@H]1C(=O)N[C@@H](CO)C(=O)O
# B5: YW-161 (peptide)
# peptide: Hydrocinnamoyl-[dY]F[NMeL]P[dS]QF[dA][Tic]S-NH2
# SMILES: CC(C)C[C@@H](C(=O)N1CCC[C@H]1C(=O)N[C@H](CO)C(=O)N[C@@H](CCC(N)=O)C(=O)N[C@@H](Cc1ccccc1)C(=O)N[C@H](C)C(=O)N1Cc2ccccc2C[C@H]1C(=O)N[C@@H](CO)C(N)=O)N(C)C(=O)[C@H](Cc1ccccc1)NC(=O)[C@@H](Cc1ccc(O)cc1)NC(=O)CCc1ccccc1
# B6: YW-162 (peptide)
# peptide: [dNMeY]F[NMeL]P[dS]Q[1Nal][dA][Tic][NMeS]-OH
# modifications: N-terminus assumed
# SMILES: CN[C@H](Cc1ccc(O)cc1)C(=O)N[C@@H](Cc1ccccc1)C(=O)N(C)[C@@H](CC(C)C)C(=O)N1CCC[C@H]1C(=O)N[C@H](CO)C(=O)N[C@@H](CCC(N)=O)C(=O)N[C@@H](Cc1cccc2ccccc12)C(=O)N[C@H](C)C(=O)N1Cc2ccccc2C[C@H]1C(=O)N(C)[C@@H](CO)C(=O)O
# B7: YW-133 (peptide)
# peptide: {Palmitoyl-PEG8}-GG[dY]F[NMeL]P[dS]QF[dA][Tic]S-OH
# SMILES: CCCCCCCCCCCCCCCC(=O)NCCOCCOCCOCCOCCOCCOCCOCCOCCC(=O)NCC(=O)NCC(=O)N[C@H](Cc1ccc(O)cc1)C(=O)N[C@@H](Cc1ccccc1)C(=O)N(C)[C@@H](CC(C)C)C(=O)N1CCC[C@H]1C(=O)N[C@H](CO)C(=O)N[C@@H](CCC(N)=O)C(=O)N[C@@H](Cc1ccccc1)C(=O)N[C@H](C)C(=O)N1Cc2ccccc2C[C@H]1C(=O)N[C@@H](CO)C(=O)O
# B8: YW-142 (peptide)
# peptide: [dNMeY]F[NMeL][Thz][dS]Q[1Nal][dA][Tic][NMeS]-OH
# modifications: N-terminus assumed
# SMILES: CN[C@H](Cc1ccc(O)cc1)C(=O)N[C@@H](Cc1ccccc1)C(=O)N(C)[C@@H](CC(C)C)C(=O)N1CSC[C@H]1C(=O)N[C@H](CO)C(=O)N[C@@H](CCC(N)=O)C(=O)N[C@@H](Cc1cccc2ccccc12)C(=O)N[C@H](C)C(=O)N1Cc2ccccc2C[C@H]1C(=O)N(C)[C@@H](CO)C(=O)O
# B9: YW-132 (peptide)
# peptide: [dY]FLP[dS]QF[dA][Tic]S-OH
# modifications: not fully specified (N-terminus); printed as 3,5-dihydroxyphenylacetyl-(D-Tyr)-Phe-Leu-Pro-(D-Ser)-Gln-Phe-(D-Ala)-Tic-Ser-OH
# B10: YW-153 (peptide)
# peptide: [dY]F[NMeL]P[dS]QF[dA][dTi1c]S-OH
# modifications: reading uncertain; also: printed as (D-Tyr)-Phe-(NMe-Leu)-Pro-(D-Ser)-Gln-Phe-(D-Ala)-(D-Ti1c)-Ser
# B11: YW-134 (peptide)
# peptide: {Palmitoyl-PEG8}-[βAla][βAla][dY]F[NMeL]P[dS]QF[dA][Tic]S-OH
# SMILES: CCCCCCCCCCCCCCCC(=O)NCCOCCOCCOCCOCCOCCOCCOCCOCCC(=O)NCCC(=O)NCCC(=O)N[C@H](Cc1ccc(O)cc1)C(=O)N[C@@H](Cc1ccccc1)C(=O)N(C)[C@@H](CC(C)C)C(=O)N1CCC[C@H]1C(=O)N[C@H](CO)C(=O)N[C@@H](CCC(N)=O)C(=O)N[C@@H](Cc1ccccc1)C(=O)N[C@H](C)C(=O)N1Cc2ccccc2C[C@H]1C(=O)N[C@@H](CO)C(=O)O
# B12: YW-98 (peptide)
# peptide: [dY]F[NMeL]P[dS]QF[dA][Tic]S-OH
# modifications: N-terminus assumed
# SMILES: CC(C)C[C@@H](C(=O)N1CCC[C@H]1C(=O)N[C@H](CO)C(=O)N[C@@H](CCC(N)=O)C(=O)N[C@@H](Cc1ccccc1)C(=O)N[C@H](C)C(=O)N1Cc2ccccc2C[C@H]1C(=O)N[C@@H](CO)C(=O)O)N(C)C(=O)[C@H](Cc1ccccc1)NC(=O)[C@H](N)Cc1ccc(O)cc1
# B13: YW-160 (peptide)
# peptide: [dY]FLP[dS]QF[dA][Tic]T-OH
# modifications: N-terminus assumed
# SMILES: CC(C)C[C@H](NC(=O)[C@H](Cc1ccccc1)NC(=O)[C@H](N)Cc1ccc(O)cc1)C(=O)N1CCC[C@H]1C(=O)N[C@H](CO)C(=O)N[C@@H](CCC(N)=O)C(=O)N[C@@H](Cc1ccccc1)C(=O)N[C@H](C)C(=O)N1Cc2ccccc2C[C@H]1C(=O)N[C@H](C(=O)O)[C@@H](C)O
# Target: T1, human Chemokine like receptor 1 (human, UniProt Q99788 1-373)
# T1 sequence (looked up): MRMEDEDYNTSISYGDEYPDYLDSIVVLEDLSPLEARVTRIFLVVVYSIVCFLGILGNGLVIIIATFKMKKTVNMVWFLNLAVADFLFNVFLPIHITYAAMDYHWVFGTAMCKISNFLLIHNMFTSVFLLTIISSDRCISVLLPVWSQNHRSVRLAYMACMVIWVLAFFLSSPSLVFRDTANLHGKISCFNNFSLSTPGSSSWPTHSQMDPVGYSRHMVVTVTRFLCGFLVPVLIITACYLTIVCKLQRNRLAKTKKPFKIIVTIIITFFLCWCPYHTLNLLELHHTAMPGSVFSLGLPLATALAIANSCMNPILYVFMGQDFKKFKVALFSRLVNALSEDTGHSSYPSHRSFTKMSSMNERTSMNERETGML
# Assay: cell-based or functional assay
row,Binder,"EC50 (µM), activation of Tango CMKLR1-bla U2OS cells [µM]"
1,[dY]FLP[dNMeS]QF[dA][Tic]S-OH [YW-106],24
2,B1,0.0006
3,B2,0.0014
4,B3,0.0005
5,B4,0.46
6,B5,0.003
7,B6,0.0026
8,B7,0.0007
9,[dY]FLP[dS]QF[dNMeA][Tic]S-OH [YW-109],11
10,[dY]FLP[dS]QF[dA][S‑Pip]S-OH [YW-90],> 50
11,B8,0.0009
12,[dY]FLP[dS]Q[dS][dA][azaTic]S-OH [YW-147],> 50
13,B9,0.0055
14,[dY]FLP[dS]QF[dA][Pro(4Ph)″]S-OH [YW-92],1
15,B10,0.0085
16,[dY]FLP[dS]QF[dA][Ala(dip)]S-OH [YW-94],8.7
17,B11,0.0007
18,[dY]F[NMeV]P[dS]QF[dA][Tic]S-OH [YW-99],12
19,[dY]FLP[dS][Gly(Nα-CH2CH2CONH2)]F[dA][Tic]S-OH [YW-108],> 50
20,"{3,5‑dihydroxyphenylacetyl}-[dY]FLP[dS]QF[dA][Tic]S [YW-131]",0.0029
21,[dY]FLP[dS]QF[dA][Bip]S-OH [YW-95],30
22,B12,0.003
23,[dY]FLP[dS][NMeQ]F[dA][Tic]S-OH [YW-107],> 50
24,B13,0.285
25,[dY]F[Nleu]P[dS]QF[dA][Tic]S-OH [YW-102],0.31
